In the supplement of paper PMC11246515:
± gives the standard deviation of the averaged measurements.

Assay: total protein half-life in vivo (active degradation + dilution); higher = more stable protein
[1] = E. coli NCM3722 delta-clpP, growth: N-lim chemostat, doubling time 6 h
[2] = E. coli NCM3722 delta-hslV, growth: N-lim chemostat, doubling time 6 h
[3] = E. coli NCM3722 delta-lon, growth: N-lim chemostat, doubling time 6 h
[4] = E. coli NCM3722 delta-smpB, growth: N-lim chemostat, doubling time 6 h
[5] = wild type E. coli NCM3722, growth: C-lim chemostat, doubling time 3 h
[6] = wild type E. coli NCM3722, growth: C-lim chemostat, doubling time 6 h
[7] = wild type E. coli NCM3722, growth: C-lim chemostat, doubling time 12 h
[8] = wild type E. coli NCM3722, growth: N-lim chemostat, doubling time 6 h
[9] = wild type E. coli NCM3722, growth: N-lim chemostat, doubling time 12 h
[10] = wild type E. coli NCM3722, growth: P-lim chemostat, doubling time 6 h
[11] = wild type E. coli NCM3722, growth: P-lim chemostat, doubling time 12 h
[12] = E. coli NCM3722 delta-clpP delta-lon delta-hslV, growth: N-lim chemostat, doubling time 6 h

| Sequence | total protein half-life in vivo [1] [h] | total protein half-life in vivo [2] [h] | total protein half-life in vivo [3] [h] | total protein half-life in vivo [4] [h] | total protein half-life in vivo [5] [h] | total protein half-life in vivo [6] [h] | total protein half-life in vivo [7] [h] | total protein half-life in vivo [8] [h] | total protein half-life in vivo [9] [h] | total protein half-life in vivo [10] [h] | total protein half-life in vivo [11] [h] | total protein half-life in vivo [12] [h] |
| --- | --- | --- | --- | --- | --- | --- | --- | --- | --- | --- | --- | --- |
| MNDEMKGKSGKVKVMYVRSDDDSDKRTHNPRTGKGGGRPGKSRADGGRRPARDDKQSQPRDRKWEDSPWRTVSRAPGDETPEKADHGGISGKSFIDPEVLRRQRAEETRVYGENACQALFQSRPEAIVRAWFIQSVTPRFKEALRWMAANRKAYHVVDEAELTKASGTEHHGGVCFLIKKRNGTTVQQWVSQAGAQDCVLALENESNPHNLGGMMRSCAHFGVKGVVVQDAALLESGAAIRTAEGGAEHVQPITGDNIVNVLDDFRQAGYTVVTTSSEQGKPLFKTSLPAKMVLVLGQEYEGLPDAARDPNDLRVKIDGTGNVAGLNISVATGVLLGEWWRQNKA [P0AGJ5] | 5.71 ± 0.11 | 4.87 ± 0.12 | 5.2 ± 0.25 | 4.77 ± 0.058 | 2.91 ± 0.33 | 5.57 ± 0.52 | 10.3 ± 0.99 | 5.53 ± 0.15 | 10.7 ± 1.5 | 5.4 ± 0.26 | 10.9 ± 0.76 | – |
| MHHATPLITTIVGGLVLAFILGMLANKLRISPLVGYLLAGVLAGPFTPGFVADTKLAPELAELGVILLMFGVGLHFSLKDLMAVKAIAIPGAIAQIAVATLLGMALSAVLGWSLMTGIVFGLCLSTASTVVLLRALEERQLIDSQRGQIAIGWLIVEDLVMVLTLVLLPAVAGMMEQGDVGFATLAVDMGITIGKVIAFIAIMMLVGRRLVPWIMARSAATGSRELFTLSVLALALGVAFGAVELFDVSFALGAFFAGMVLNESELSHRAAHDTLPLRDAFAVLFFVSVGMLFDPLILIQQPLAVLATLAIILFGKSLAAFFLVRLFGHSQRTALTIAASLAQIGEFAFILAGLGMALNLLPQAGQNLVLAGAILSIMLNPVLFALLEKYLAKTETLEEQTLEEAIEEEKQIPVDICNHALLVGYGRVGSLLGEKLLASDIPLVVIETSRTRVDELRERGVRAVLGNAANEEIMQLAHLECAKWLILTIPNGYEAGEIVASARAKNPDIEIIARAHYDDEVAYITERGANQVVMGEREIARTMLELLETPPAGEVVTG | 6.7 ± 0.41 | 6.3 ± 0.52 | 6.24 ± 1.1 | 6.31 ± 0.61 | > 4 | 5.87 ± 0.64 | – | 5.84 ± 0.9 | 12.7 ± 0.69 | 6.44 ± 0.68 | 12.6 ± 0.86 | 7.0037 ± 0.0035 |
| MTGMTNVTKLASEPSGQEFLVFTLGDEEYGIDILKVQEIRGYDQVTRIANTPAFIKGVTNLRGVIVPIVDLRIKFSQVDVDYNDNTVVIVLNLGQRVVGIVVDGVSDVLSLTAEQIRPAPEFAVTLSTEYLTGLGALGDRMLILVNIEKLLNSEEMALLDSAASEVA [P0A964] | 4.56 ± 0.37 | 5.25 | 5.4 ± 0.52 | > 8 | 1.741 ± 0.013 | 1.86 ± 0.086 | 3.67 ± 1.6 | 1.74 | 2.23 | 0.859 | 9.75 | 5.19 ± 0.61 |
| MAEMKNLKIEVVRYNPEVDTAPHSAFYEVPYDATTSLLDALGYIKDNLAPDLSYRWSCRMAICGSCGMMVNNVPKLACKTFLRDYTDGMKVEALANFPIERDLVVDMTHFIESLEAIKPYIIGNSRTADQGTNIQTPAQMAKYHQFSGCINCGLCYAACPQFGLNPEFIGPAAITLAHRYNEDSRDHGKKERMAQLNSQNGVWSCTFVGYCSEVCPKHVDPAAAIQQGKVESSKDFLIATLKPR [P0AC47] | 5.78 ± 0.38 | 6.96 ± 1 | 5.92 ± 0.62 | 5.82 ± 0.086 | 3.07 ± 0.19 | 5.76 ± 0.11 | 11 ± 2.1 | 6.1 ± 0.5 | 12.2 ± 1.8 | 5.48 ± 0.44 | 13.1 ± 1.2 | – |
| MAELSDQEMLRYNRQIILRGFDFDGQEALKDSRVLIVGLGGLGCAASQYLASAGVGNLTLLDFDTVSLSNLQRQTLHSDATVGQPKVESARDALTRINPHIAITPVNALLDDAELAALIAEHDLVLDCTDNVAVRNQLNAGCFAAKVPLVSGAAIRMEGQITVFTYQDGEPCYRCLSRLFGENALTCVEAGVMAPLIGVIGSLQAMEAIKMLAGYGKPASGKIVMYDAMTCQFREMKLMRNPGCEVCGQ | 4.37 ± 0.4 | 4.1 ± 0.1 | 6.67 ± 1.7 | 4.36 ± 0.4 | 3.03 ± 0.46 | 6.09 ± 0.5 | 11.3 ± 0.97 | 4.66 ± 0.53 | 9.95 | 5.7448 ± 0.0056 | 13.2 ± 1.6 | 5.3 ± 1.4 |
| MNLLIDNWIPVRPRNGGKVQIINLQSLYCSRDQWRLSLPRDDMELAALALLVCIGQIIAPAKDDVEFRHRIMNPLTEDEFQQLIAPWIDMFYLNHAEHPFMQTKGVKANDVTPMEKLLAGVSGATNCAFVNQPGQGEALCGGCTAIALFNQANQAPGFGGGFKSGLRGGTPVTTFVRGIDLRSTVLLNVLTLPRLQKQFPNESHTENQPTWIKPIKSNESIPASSIGFVRGLFWQPAHIELCDPIGIGKCSCCGQESNLRYTGFLKEKFTFTVNGLWPHPHSPCLVTVKKGEVEEKFLAFTTSAPSWTQISRVVVDKIIQNENGNRVAAVVNQFRNIAPQSPLELIMGGYRNNQASILERRHDVLMFNQGWQQYGNVINEIVTVGLGYKTALRKALYTFAEGFKNKDFKGAGVSVHETAERHFYRQSELLIPDVLANVNFSQADEVIADLRDKLHQLCEMLFNQSVAPYAHHPKLISTLALARATLYKHLRELKPQGGPSNG | – | – | – | 2.728 ± 0.0011 | – | 3.27 | 6.24 | – | – | 2.97 | 6.78 ± 1.8 | 5.99 ± 0.51 |
| MTRYQHLATLLAERIEQGLYRHGEKLPSVRSLSQEHGVSISTVQQAYQTLETMKLITPQPRSGYFVAQRKAQPPVPPMTRPVQRPVEITQWDQVLDMLEAHSDSSIVPLSKSTPDVEAPSLKPLWRELSRVVQHNLQTVLGYDLLAGQRVLREQIARLMLDSGSVVTADDIIITSGCHNSMSLALMAVCKPGDIVAVESPCYYGSMQMLRGMGVKVIEIPTDPETGISVEALELALEQWPIKGIILVPNCNNPLGFIMPDARKRAVLSLAQRHDIVIFEDDVYGELATEYPRPRTIHSWDIDGRVLLCSSFSKSIAPGLRVGWVAPGRYHDKLMHMKYAISSFNVPSTQMAAATFVLEGHYHRHIRRMRQIYQRNLALYTCWIREYFPCEICITRPKGGFLLWIELPEQVDMVCVARQLCRMKIQVAAGSIFSASGKYRNCLRINCALPLSETYREALKQIGEAVYRAME | 3.72 ± 0.22 | 2.89 | – | 2.79 ± 0.039 | 3.04 ± 0.04 | 4.58 ± 0.076 | 7.69 ± 0.59 | 3.09 ± 0.11 | – | 3.19 ± 0.25 | 6.91 ± 3.5 | 6.94 ± 1 |
| MFALCDVNAFYASCETVFRPDLWGKPVVVLSNNDGCVIARNAEAKALGVKMGDPWFKQKDLFRRCGVVCFSSNYELYADMSNRVMSTLEELSPRVEIYSIDEAFCDLTGVRNCRDLTDFGREIRATVLQRTHLTVGVGIAQTKTLAKLANHAAKKWQRQTGGVVDLSNLERQRKLMSALPVDDVWGIGRRISKKLDAMGIKTVLDLADTDIRFIRKHFNVVLERTVRELRGEPCLQLEEFAPTKQEIICSRSFGERITDYPSMRQAICSYAARAAEKLRSEHQYCRFISTFIKTSPFALNEPYYGNSASVKLLTPTQDSRDIINAATRSLDAIWQAGHRYQKAGVMLGDFFSQGVAQLNLFDDNAPRPGSEQLMTVMDTLNAKEGRGTLYFAGQGIQQQWQMKRAMLSPRYTTRSSDLLRVK | – | – | – | – | – | – | – | – | – | – | – | 5.93 |
